Where a chain is given by its changes, count along the chain named.
B1: 144L124B (antibody, V domains shown)
VH: EVQLQQSGAELVKPGASVKLSCTASGFNIKDTYIYWVKQRPEQGLEWIGRIDPANGYTRYDPKFQGKATMTADTSSNTAYLQLSSLTSEDTAVYYCARYEYYDSSFYFDYWGQGTTLTVSS
VL: QAVVTQESALTTSPGETVTLTCRSSTGAVTTSNYANWVQEKPDHLFTGLIGGTNNRAPGVPARFSGSLIGDKAALTITGAQTEDEAIYFCALWYSNHLVFGGGTKLTVL
notes: Mouse monoclonal from hybridoma; mouse IgG heavy and lambda light chain; Same VH and VL as 144L180A
B2: 144L180A (antibody, V domains shown)
VH: B1 VH
VL: B1 VL
B3: 144L133B (antibody, V domains shown)
VH: B1 VH with I34M, N55I, Y57T, M70L, Y80F, E100D, Y102S, D103G, Q113R
VL: B1 VL
B4: m/h 144L124B (antibody, human IgG1, lambda, V domains shown)
VH: B1 VH
VL: QAVVTQESALTTSPGETVTLTCRSSTGAVTTSNYANWVQEKPDHLFTGLIGGTNNRAPGVPARFSGSLIGDKAALTITGAQTEDEAIYFCALWYSNHLVFGGGTKLTVLG
notes: Mouse VH/VL joined to human IgG1 constant and human Ig lambda (IGLC2) constant; also called chimeric mouse/human 144L124B
B5: chimeric m/h 144D464A (antibody, human IgG1, lambda, V domains shown)
VH: EVQLQQSGAELVKPGASVRLSCTASGFNIKDTYIHWVKQRPEQGLEWIGRIDPAIGTTRYDPKFQGKATITTDTSSDTVHLQFSSLTSEDTAVYYCARLHYFGNNFFFDYWGQGTTLTVSS
VL: B4 VL with T17A, T26S, T47A, N55D, Y94F, L98W
notes: Mouse VH/VL joined to human IgG1 constant and human Ig lambda (IGLC2) constant; also called chimeric mouse/human (m/h) 144D464A antibody

Tests used:
human IL-36γ, truncated [1] = biological target: T1, human IL-36γ, truncated (human, UniProt Q9NZH8 18-169); assay: cell-based or functional assay
T1 sequence: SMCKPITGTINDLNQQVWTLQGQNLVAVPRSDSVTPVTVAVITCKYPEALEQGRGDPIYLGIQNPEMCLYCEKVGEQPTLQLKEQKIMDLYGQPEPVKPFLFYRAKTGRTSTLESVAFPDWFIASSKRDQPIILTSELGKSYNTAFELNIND

[2] = biological target: T2, human IL-36α(R12), truncated (human, UniProt Q9UHA7 6-158); assay: cell-based or functional assay
T2 chain: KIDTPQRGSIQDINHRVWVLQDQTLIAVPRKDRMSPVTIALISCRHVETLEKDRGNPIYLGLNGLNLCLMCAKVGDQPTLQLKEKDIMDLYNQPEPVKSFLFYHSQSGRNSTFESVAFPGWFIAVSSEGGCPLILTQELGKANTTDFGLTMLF

[3] = biological target: T3, cynomolgus IL-36α, truncated (cynomolgus macaque (Macaca fascicularis), UniProt Q9UHA7 14-158 (human entry), limits assumed); assay: cell-based or functional assay
T3 chain: T2 chain with I2S, D3E, T4M, R7P, G8V, T24I, M34V, A40S, V74A

[4] = biological target: T2, human IL-36α(R12), truncated; assay: cell-based or functional assay
[5] = biological target: T4, cynomolgus IL-36γ, truncated (cynomolgus macaque (Macaca fascicularis), UniProt Q9NZH8 18-167 (human entry), limits assumed); assay: cell-based or functional assay
T4 chain: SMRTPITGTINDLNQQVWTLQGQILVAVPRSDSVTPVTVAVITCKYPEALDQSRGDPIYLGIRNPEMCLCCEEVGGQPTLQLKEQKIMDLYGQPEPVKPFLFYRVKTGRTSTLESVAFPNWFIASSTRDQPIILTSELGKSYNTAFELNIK

human IL-36γ, truncated [6] = biological target: T1, human IL-36γ, truncated; assay: cell-based or functional assay; remark: listed apart in the source
[7] = biological target: T4, cynomolgus IL-36γ, truncated; assay: SPR, Biacore T200, antibody on chip, IL-36 as analyte, 1:1 Langmuir fit
Experimental: (§1) Antibodies were further tested for their binding to recombinant human or cynomolgus IL36α, IL-36γ in Biacore assays. In order to kinetically analyze the binding activity of the IL-36α and IL-36γ dual antagonist antibodies, the binding activity to human and cynomolgus IL-36α and IL-36γ was measured by surface plasmon resonance method (SPR). All of the following manipulations were carried out using a Biacore T200 (GE Healthcare Life Sciences, Pittsburgh, Pa.).
(§2) To determine antibody affinity to human and cynomolgus IL36, recombinant antibodies were immobilized on a CM5 sensor chip (cat# BR100012, GE Healthcare Life Sciences, Pittsburgh, Pa.) by an amine coupling chemistry. In particular, the kinetic assay was carried out by immobilizing on the chip approximately 2000 RU of recombinant antibody. Thereafter, recombinant human or cynomolgus IL36 proteins, serially diluted from a high concentration, were allowed to run at a flow rate of 30 μL/min onto the chip for 420 seconds. The dissociation time was 3600 seconds and the binding curves were measured at 25° C. Regeneration was performed with 10 mM glycine pH 1.5 for 30s. Alternatively, the analytes were injected with increasing concentrations in a single cycle, the surface not being regenerated between injections, using a method referred to as “single cycle kinetics.” In particular, either anti-human or anti-mouse Fc specific antibodies were immobilized on a CM5 sensor chip (cat# BR100012, GE Healthcare Life Sciences, Pittsburgh, Pa.) by an amine coupling chemistry. Thereafter, IL-36α and IL-36γ dual antagonist mouse/human chimeric or mouse antibodies were captured at approximately 200 RUs, followed by injections of increasing concentrations of recombinant human and cynomolgus IL36 proteins. The association time was 300 seconds, and the final dissociation time was 1200 seconds. At the end of the analyte injections, the surface was regenerated with either 3M MgCl₂ (anti-human Fc capture antibody) for 30 s or 10 mM glycine-HCl pH 1.7 for 180 s (anti-mouse IgG capture antibody).
(§3) The raw data were double referenced by subtraction of the signals from a reference flow cell without immobilized ligand and a buffer blank. The sensorgram corresponding to each concentration was obtained.

[8] = biological target: T3, cynomolgus IL-36α, truncated; assay: as above
Experimental: as §1, §2, §3

human IL-36γ, truncated [9] = biological target: T1, human IL-36γ, truncated; assay: as above
Experimental: as §1, §2, §3

[10] = biological target: T2, human IL-36α(R12), truncated; assay: as above
Experimental: as §1, §2, §3

human IL-36γ, truncated [11] = biological target: T1, human IL-36γ, truncated; assay: cell-based or functional assay; remark: listed apart in the source
[12] = biological target: T2, human IL-36α(R12), truncated; assay: cell-based or functional assay
[13] = biological target: T5, human IL-36α(Q12), truncated (human, UniProt Q9UHA7 6-158); assay: SPR, Biacore T200, antibody on chip, IL-36 as analyte, 1:1 Langmuir fit
T5 construct: Untagged after removal of the His-SUMO tag
T5 sequence: T2 chain with R7Q
Experimental: as §1, §2, §3

Binder	IC50 of IL-8 secretion, primary human keratinocytes, 8.4 nM human IL-36γ, FIG. 4C (human IL-36γ, truncated [1])	IC50 of IL-8 secretion, primary human keratinocytes, 6.25 nM human IL-36α, FIG. 4A [2]	IC50 of IL-8 secretion, HaCaT, 10 nM cynomolgus IL-36α, FIG. 2B [3]	IC50 of IL-8 secretion, HaCaT, 10 nM human IL-36α, FIG. 1C [4]	IC50 of IL-8 secretion, HaCaT, 10 nM cynomolgus IL-36γ, FIG. 2D [5]	IC50 of IL-8 secretion, HaCaT, 10 nM human IL-36γ, FIG. 1F (human IL-36γ, truncated [6])	Kd [7]	koff [7]	kon [7]	Kd [8]	koff [8]	kon [8]	Kd (human IL-36γ, truncated [9])	koff (human IL-36γ, truncated [9])	kon (human IL-36γ, truncated [9])	Kd [10]	koff [10]	kon [10]	IC50 of IL-8 secretion, primary human monocytes, 50 nM human IL-36γ, FIG. 5D (human IL-36γ, truncated [11])	IC50 of IL-8 secretion, primary human monocytes, 20 nM human IL-36α, FIG. 5A [12]	also measured
B1	15.8 nM	11.1 nM	14.2 nM	42 nM	28.3 nM	15.8 nM	0.824 nM	0.000488 s⁻¹	593000 M⁻¹ s⁻¹	2.54 nM	0.0192 s⁻¹	7.56e+06 M⁻¹ s⁻¹	0.833 nM	0.000691 s⁻¹	829000 M⁻¹ s⁻¹	3.56 nM	0.0417 s⁻¹	1.17e+07 M⁻¹ s⁻¹	41.2 nM	44.2 nM	IC50 of IL-8 secretion, primary human monocytes, 6 nM human IL-36γ, FIG. 5C (human IL-36γ, truncated [11]): 19.1 nM
B2			15.7 nM	22.5 nM	30.3 nM	21.3 nM													50.9 nM	96.9 nM	IC50 of IL-8 secretion, primary human monocytes, 6 nM human IL-36γ, FIG. 5C (human IL-36γ, truncated [11]): 5.49 nM
B3			9.61 nM	28.7 nM	20.6 nM	12.9 nM													39.6 nM	39.5 nM	
B4																					Kd [13]: 1.86 nM; koff [13]: 0.0227 s⁻¹; kon [13]: 1.22e+07 M⁻¹ s⁻¹; IC50 of IL-8 secretion, primary human monocytes, 40 nM human IL-36α, FIG. 5B [12]: 27.5 nM
B5	12.8 nM	2.32 nM	4.91 nM	7.77 nM	13.2 nM	9.54 nM	1.84 nM	0.000342 s⁻¹	186000 M⁻¹ s⁻¹	1.64 nM	0.000267 s⁻¹	163000 M⁻¹ s⁻¹	1.48 nM	0.000218 s⁻¹	147000 M⁻¹ s⁻¹	2.18 nM	0.000309 s⁻¹	142000 M⁻¹ s⁻¹	33.3 nM	7.15 nM	IC50 of IL-8 secretion, primary human keratinocytes, 8.4 nM human IL-36γ, FIG. 4D (human IL-36γ, truncated [1]): 10 nM; IC50 of IL-8 secretion, primary human keratinocytes, 8 nM human IL-36α, FIG. 4B [2]: 12.3 nM; IC50 of IL-8 secretion, HaCaT, 10 nM human IL-36α, FIG. 1A [4]: 3.84 nM; IC50 of IL-8 secretion, HaCaT, 10 nM human IL-36γ, FIG. 1D (human IL-36γ, truncated [6]): 6.43 nM; Kd [13]: 1.08 nM; koff [13]: 0.000391 s⁻¹; kon [13]: 361000 M⁻¹ s⁻¹; IC50 of IL-8 secretion, primary human monocytes, 40 nM human IL-36α, FIG. 5B [12]: 22.4 nM
